# Test results from publication PMC4890040.
# Tests used:
# Test in all cases: SEC; protein alone, prior to DNA binding; Superdex 200, 20 mM Tris pH 7.5, 0.2 M NaCl, 5 mM DTT, 4 °C, 50 μL/min; peaks assigned to monomer and dimer by elution times
# [1] = biological target: L-Tgf2TPase(D228N, E648Q) (goldfish (Carassius auratus))
# [2] = biological target: S1-Tgf2TPase (truncated Tgf2 transposase, 110-686 aa) (goldfish (Carassius auratus))
# [3] = biological target: S2-Tgf2TPase (truncated Tgf2 transposase, 124-686 aa) (goldfish (Carassius auratus))
# [4] = biological target: full length Tgf2 transposase (L-Tgf2TPase) (goldfish (Carassius auratus))
substance,measurement,setting,value
"L-Tgf2TPase(D228N, E648Q) (enzyme)",stoichiometry N,[1],2
"S1-Tgf2TPase (truncated Tgf2 transposase, 110-686 aa) (domain or fragment)",stoichiometry N,[2],2
"S2-Tgf2TPase (truncated Tgf2 transposase, 124-686 aa) (domain or fragment)",stoichiometry N,[3],2
full length Tgf2 transposase (L-Tgf2TPase) (enzyme),stoichiometry N,[4],2
